From patent US20180230224A1 (KITE PHARMA, published 2018)

T1: recombinant CD70-Fc (Sino Biological) (UniProt P32970 39-193, limits assumed)
T1 construct: Bought reagent; not shown: Fc part
T1 sequence (looked up): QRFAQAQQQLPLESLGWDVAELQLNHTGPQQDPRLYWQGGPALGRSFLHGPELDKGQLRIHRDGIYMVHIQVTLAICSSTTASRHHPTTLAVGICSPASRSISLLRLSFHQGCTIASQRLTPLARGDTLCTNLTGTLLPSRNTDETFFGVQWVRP

B1: 1C8.1.001_C28T_28z (other)
chain: QVQLQESGPGLVKPSQTLSLTCTVSGDSIISGGYYWSWIRQHPGKGLEWIGYIFYSGSTDYNPSLKSRVTISVDTSKNQFSLKLSSVTAADTAVYYCARSGYSYALFDHWGQGTLVTVSSGGGGSGGGGSGGGGSDIQMTQSPSSLSASVGDRVTISCRASQFIGRYFNWYQQQPGKAPKVLIYAESSLQSGVPSRFSGSGSGTEFTLTISSLQPEDFARYYCQQSYSTPFTFGQGTKVEIKRAAALDNEKSNGTIIHVKGKHLCPSPLFPGPSKPFWVLVVVGGVLACYSLLVTVAFIIFWVRSKRSRLLHSDYMNMTPRRPGPTRKHYQPYAPPRDFAAYRSRVKFSRSADAPAYQQGQNQLYNELNLGRREEYDVLDKRRGRDPEMGGKPRRKNPQEGLYNELQKDKMAEAYSEIGMKGERRRGKGHDGLYQGLSTATKDTYDALHMQALPPR
notes: Chimeric antigen receptor on lentivirus-transduced human T cells; also called 28T-28z comprising a 1C8 scFv
B2: 1C8.1.001_C28T_4Bz (other)
chain: QVQLQESGPGLVKPSQTLSLTCTVSGDSIISGGYYWSWIRQHPGKGLEWIGYIFYSGSTDYNPSLKSRVTISVDTSKNQFSLKLSSVTAADTAVYYCARSGYSYALFDHWGQGTLVTVSSGGGGSGGGGSGGGGSDIQMTQSPSSLSASVGDRVTISCRASQFIGRYFNWYQQQPGKAPKVLIYAESSLQSGVPSRFSGSGSGTEFTLTISSLQPEDFARYYCQQSYSTPFTFGQGTKVEIKRAAALDNEKSNGTIIHVKGKHLCPSPLFPGPSKPFWVLVVVGGVLACYSLLVTVAFIIFWVRFSVVKRGRKKLLYIFKQPFMRPVQTTQEEDGCSCRFPEEEEGGCELRVKFSRSADAPAYQQGQNQLYNELNLGRREEYDVLDKRRGRDPEMGGKPRRKNPQEGLYNELQKDKMAEAYSEIGMKGERRRGKGHDGLYQGLSTATKDTYDALHMQALPPR
notes: Chimeric antigen receptor on lentivirus-transduced human T cells; 1C8 scFv, CD28T hinge/TM, 4-1BB, CD3 zeta; also called 28T-4Bz comprising a 1C8 scFv
B3: 6E9.1_C28T_4Bz (other)
chain: QVHLVQSGAEVKKPGASVRVSCKASGYTFTSYYLHWVRQAPGQGLEWMGIVDPSGGSTSYDQKFQGRFTMTRDTSTSTVYMELSSLRSEDTAVYYCARDYGDYVFDYWGQGTLVTVSSGGGGSGGGGSGGGGSQSVLTQPPSASGTPGQRVTISCSGSSSNIGTNTVNWYQQLPGTAPQLLIYINNQRPSGVPDRFSGSKSGTSASLAISGLQSEDEADYYCATWDDSLNGPVVGGGTKLTVLGAAALDNEKSNGTIIHVKGKHLCPSPLFPGPSKPFWVLVVVGGVLACYSLLVTVAFIIFWVRFSVVKRGRKKLLYIFKQPFMRPVQTTQEEDGCSCRFPEEEEGGCELRVKFSRSADAPAYQQGQNQLYNELNLGRREEYDVLDKRRGRDPEMGGKPRRKNPQEGLYNELQKDKMAEAYSEIGMKGERRRGKGHDGLYQGLSTATKDTYDALHMQALPPR
notes: Chimeric antigen receptor on lentivirus-transduced human T cells; 6E9 scFv, CD28T hinge/TM, 4-1BB, CD3 zeta; also called 28T-4Bz comprising a 6E9 scFv
B4: 6E9.1_C28T_28z (other)
chain: QVHLVQSGAEVKKPGASVRVSCKASGYTFTSYYLHWVRQAPGQGLEWMGIVDPSGGSTSYDQKFQGRFTMTRDTSTSTVYMELSSLRSEDTAVYYCARDYGDYVFDYWGQGTLVTVSSGGGGSGGGGSGGGGSQSVLTQPPSASGTPGQRVTISCSGSSSNIGTNTVNWYQQLPGTAPQLLIYINNQRPSGVPDRFSGSKSGTSASLAISGLQSEDEADYYCATWDDSLNGPVVGGGTKLTVLGAAALDNEKSNGTIIHVKGKHLCPSPLFPGPSKPFWVLVVVGGVLACYSLLVTVAFIIFWVRSKRSRLLHSDYMNMTPRRPGPTRKHYQPYAPPRDFAAYRSRVKFSRSADAPAYQQGQNQLYNELNLGRREEYDVLDKRRGRDPEMGGKPRRKNPQEGLYNELQKDKMAEAYSEIGMKGERRRGKGHDGLYQGLSTATKDTYDALHMQALPPR
notes: Chimeric antigen receptor on lentivirus-transduced human T cells; also called 28T-28z comprising a 6E9 scFv
B5: 8G1.1_C28T_4Bz (other)
chain: QEQLVESGGGVVQPGRSLRLSCAASGFTFSSYGMHWVRQAPGKGLEWVAVTWYDGSNKYYGDSVKGRFTISRDNSKNTLYLQMNSLRAEDTAVYYCARDLLRGVKGYAMDVWGQGTTVTVSSGGGGSGGGGSGGGGSEIVLTQSPGTLSLSPGERATLSCRASQSLRRIYLAWYQQKPGQAPRLLIYDVFDRATGIPDRFSGGGSGTDFTLTISRLEPEDFAVYYCQQYSDSPFTFGPGTKVDIKRAAALDNEKSNGTIIHVKGKHLCPSPLFPGPSKPFWVLVVVGGVLACYSLLVTVAFIIFWVRFSVVKRGRKKLLYIFKQPFMRPVQTTQEEDGCSCRFPEEEEGGCELRVKFSRSADAPAYQQGQNQLYNELNLGRREEYDVLDKRRGRDPEMGGKPRRKNPQEGLYNELQKDKMAEAYSEIGMKGERRRGKGHDGLYQGLSTATKDTYDALHMQALPPR
notes: Chimeric antigen receptor on lentivirus-transduced human T cells; 8G1 scFv, CD28T hinge/TM, 4-1BB, CD3 zeta; also called 28T-4Bz comprising an 8G1 scFv
B6: 8G1.1_C28T_28z (other)
chain: QEQLVESGGGVVQPGRSLRLSCAASGFTFSSYGMHWVRQAPGKGLEWVAVTWYDGSNKYYGDSVKGRFTISRDNSKNTLYLQMNSLRAEDTAVYYCARDLLRGVKGYAMDVWGQGTTVTVSSGGGGSGGGGSGGGGSEIVLTQSPGTLSLSPGERATLSCRASQSLRRIYLAWYQQKPGQAPRLLIYDVFDRATGIPDRFSGGGSGTDFTLTISRLEPEDFAVYYCQQYSDSPFTFGPGTKVDIKRAAALDNEKSNGTIIHVKGKHLCPSPLFPGPSKPFWVLVVVGGVLACYSLLVTVAFIIFWVRSKRSRLLHSDYMNMTPRRPGPTRKHYQPYAPPRDFAAYRSRVKFSRSADAPAYQQGQNQLYNELNLGRREEYDVLDKRRGRDPEMGGKPRRKNPQEGLYNELQKDKMAEAYSEIGMKGERRRGKGHDGLYQGLSTATKDTYDALHMQALPPR
notes: also called CD70 CAR C3L; 28T-28z comprising an 8G1 scFv

Tests used:
[1] = target: CD70 on NAMALWA and Raji cells (human) (UniProt P32970); assay: flow cytometry; EoL-1 cells stained with PE-conjugated anti-CD70 antibody; open histogram as control
[2] = target: CD70 on NAMALWA and Raji cells (human) (UniProt P32970); assay: flow cytometry; NAMALWA cells stained with PE-conjugated anti-CD70 antibody; open histogram as control
[3] = target: CD70 on NAMALWA and Raji cells (human) (UniProt P32970); assay: flow cytometry; MV4;11 cells stained with PE-conjugated anti-CD70 antibody; open histogram as control
[4] = target: CD70 on NAMALWA and Raji cells (human) (UniProt P32970); assay: flow cytometry; Toledo cells stained with PE-conjugated anti-CD70 antibody; open histogram as control
[5] = target: CD70 on NAMALWA and Raji cells (human) (UniProt P32970); assay: flow cytometry; Raji cells (panel title cut to 'Raj'; panel order given in the legend paragraph 42) stained with PE-conjugated anti-CD70 antibody; open histogram as control
[6] = target: CD70 on NAMALWA and Raji cells (human) (UniProt P32970); assay: flow cytometry; U-937 cells stained with PE-conjugated anti-CD70 antibody; open histogram as control
[7] = target: T1, recombinant CD70-Fc (Sino Biological); assay: flow cytometry; donor 1 T cells transduced with the CAR, day 14 post stimulation, stained with recombinant CD70-Fc and goat anti-human IgG Fc PE; mock-transduced cells as control
Description: Peripheral blood mononuclear cells (PBMCs) were isolated from two different healthy donor leukopaks (Hemacare) using Ficoll®-Paque density centrifugation according to the manufacturer's instructions. PBMCs were stimulated using OKT3 (Muromonab-CD3, 50 ng/ml, Miltenyi Biotec) in R10 media supplemented with IL-2 (300 IU/ml, Proleukin®, Prometheus® Therapeutics and Diagnostics). Forty-eight hours post-stimulation, cells were transduced using lentivirus containing the different CD70 CAR constructs at a multiplicity of infection (MOI) of 10. Cells were maintained at 0.5×10⁶-2.0×10⁶ cells/ml prior to use in activity assays.
At day 14 post-stimulation, transduced T cells were stained with recombinant CD70-Fc (Sino Biological) in stain buffer (BD Pharmingen) for 30 minutes at 4° C. Cells were then washed and stained with goat anti-human IgG Fc PE (Jackson ImmunoResearch) in stain buffer for 30 minutes at 4° C. Cells were then washed and resuspended in stain buffer with propidium iodide (BD Pharmingen) prior to data acquisition. All experiments were performed in two different donors.

Molecule	% CAR (+) [7] [%]	also measured
anti-CD70 antibody conjugated to PE (BD Pharmingen)	–	percent of cells in the positive gate (number in the panel) [1]: 64.6%; percent of cells in the positive gate (number in the panel) [2]: 100%; percent of cells in the positive gate (number in the panel) [3]: 43.1%; percent of cells in the positive gate (number in the panel) [4]: 99.9%; percent of cells in the positive gate (number in the panel) [5]: 100%; percent of cells in the positive gate (number in the panel) [6]: 96.6%
B1	25.4	–
B2	0.27	–
B3	4.48	–
B4	4.45	–
B5	49.8	–
B6	42.2	–
